Positions count from the first letter of the chain named.
Experiments:
Assay in all cases: EMSA
Conditions in all cases: EMSA: binding buffer 100 mM Tris-HCl pH 8, 375 mM NaCl, 25 mM MgCl2, 5 mM DTT, 65% glycerol [sic]; about 1 nmol DNA in 20 ul, 25 C …
[1] = target: T1, Lrp K36Q K36Q (Salmonella Typhimurium 14028s) (UniProt A0A0F6AZA3)
T1 sequence: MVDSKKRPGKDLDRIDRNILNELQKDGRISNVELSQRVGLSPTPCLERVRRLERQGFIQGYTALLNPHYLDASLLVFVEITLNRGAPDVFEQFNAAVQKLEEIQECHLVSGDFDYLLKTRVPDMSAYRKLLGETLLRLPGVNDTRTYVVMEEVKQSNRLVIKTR

[2] = target: T2, Lrp wild type (Salmonella Typhimurium 14028s) (UniProt A0A0F6AZA3)
T2 sequence: T1 sequence with Q36K

[3] = target: T3, Lrp K25Q K25Q (Salmonella Typhimurium 14028s) (UniProt A0A0F6AZA3)
T3 sequence: T1 sequence with K25Q, Q36K

[4] = target: T4, Lrp K36R K36R (Salmonella Typhimurium 14028s) (UniProt A0A0F6AZA3)
T4 sequence: T1 sequence with Q36R

## ACACAGTGGAGCAATAATAAAGAATGAGACCTCCCTGTTGACTGGCTATTTTGCGTAAGAGTAATAAATATGTGGAATATCCATTTCGCACCAACAAAAAAGAAATTTCTGATTAAGTAAAAACAATATGGATTATACCTGGTCTGATTTCTCGGAAAAGTCTTGCGAAATGCGAATTATGGATAGCGGGTAGGATATTCTG (double strand) [fimZ promoter]
[1]
  binding: binds more weakly
[2]
  binding: binds
[3]
  binding: binds
[4]
  binding: binds

Reference: publication PMC5112231
